US20220206001A1 (TWIST BIOSCIENCE, published 2022)

Tests used:
[1] = molecular target: T1, SARS-CoV S1 monomer (SARS-CoV, UniProt P59594 14-667); experiment: SPR (Carterra LSA)
T1 construct: domain: S1

[2] = molecular target: SARS-CoV-2 nucleocapsid protein (SARS-CoV-2, UniProt P0DTC9 1-419); experiment: lateral flow screen with nucleocapsid protein, capture antibody

B1: Ab-7 (antibody, V domains shown)
VH: EVQLLESGGGLVQPGGSLRLSCAASGFTFSDFAMAWVRQAPGKGLEWVSAISGSGDITYYADSVKGRFTISRDNSKNTLYLQMNSLRAEDTAVYYCAREADGLHSPWHFDLWGQGTLVTVSS
VL: DIQMTQSPSSLSASVGDRVTITCRASQSIHTYLNWYQQKPGKAPKLLIYAASALASGVPSRFSGSGSGTDFTLTISSLQPEDFATYYCQQSYSAPPYTFGQGTKVEIK
binding result [1]: binds

B2: Ab-89 (antibody, V domains shown)
VH: EVQLVESGGGLVQPGGSLRLSCAASGIPSTLRAMGWFRQAPGKEREFVALINRSGGSQFYADSVKGRFTISADNSKNTAYLQMNSLKPEDTAVYYCAIGRGSWGQGTLVTVSS
binding result [2]: binds
